Data on 5 sequences can be found in US20260226440.

What all share (assay): cell_activity
Series [1] deals with Type V nuclease-mutMMLV RT fusion. To be noted: HEK293T.
In series [2] the test system is T1, Type V CRISPR nuclease (8218).
T1 sequence: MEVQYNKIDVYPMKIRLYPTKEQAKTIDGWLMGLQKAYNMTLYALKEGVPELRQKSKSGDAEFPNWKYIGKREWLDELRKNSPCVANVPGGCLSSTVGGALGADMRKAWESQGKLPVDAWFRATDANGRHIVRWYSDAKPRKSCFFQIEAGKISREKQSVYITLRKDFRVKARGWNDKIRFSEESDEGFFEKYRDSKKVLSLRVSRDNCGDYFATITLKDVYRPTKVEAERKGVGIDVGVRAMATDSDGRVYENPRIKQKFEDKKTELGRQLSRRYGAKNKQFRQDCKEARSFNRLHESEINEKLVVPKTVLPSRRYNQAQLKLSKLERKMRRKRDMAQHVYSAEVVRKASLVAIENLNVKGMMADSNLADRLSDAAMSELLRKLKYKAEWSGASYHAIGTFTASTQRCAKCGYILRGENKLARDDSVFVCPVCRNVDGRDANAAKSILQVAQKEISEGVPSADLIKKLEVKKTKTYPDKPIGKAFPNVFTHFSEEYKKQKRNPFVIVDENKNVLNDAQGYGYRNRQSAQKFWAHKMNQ
To be noted: indels in HEK293T; PAM 5'-TTTC-3'; reference.

The subject of series [3] is nuclease-RT fusion D137R D137R (numbering of SEQ ID NO: 1). To be noted: HEK293T; PAM TTTC; average ratio, EMX1 and VEGFA tested; RT editing ratio 1.392.
The target in series [4] is nuclease-RT fusion N127R N127R (numbering of SEQ ID NO: 1) (UniProt P03355). To be noted: HEK293T; PAM TTTC; average ratio, EMX1 and VEGFA tested; RT editing ratio 1.507.
The test system of series [5] is nuclease-RT fusion A138R A138R (numbering of SEQ ID NO: 1). The conditions noted are these: HEK293T; PAM TTTC; average ratio, EMX1 and VEGFA tested; RT editing ratio 1.266.
Series [6] deals with nuclease-RT fusion E328R E328R (numbering of SEQ ID NO: 1). The conditions noted are these: HEK293T; PAM TTTC; loss of activity; average ratio, EMX1 and VEGFA tested; RT editing ratio 0.173.
Series [7] has as its target nuclease-RT fusion S205G S205G (numbering of SEQ ID NO: 1) (UniProt P03355). To be noted: HEK293T; PAM TTTC; average ratio, EMX1 and VEGFA tested; RT editing ratio 1.654.
Series [8] addresses nuclease-RT fusion D237G D237G (numbering of SEQ ID NO: 1) (UniProt P03355). The conditions noted are these: HEK293T; PAM TTTC; loss of activity; average ratio, EMX1 and VEGFA tested; RT editing ratio 0.038.
The target in series [9] is nuclease-RT fusion D125G D125G (numbering of SEQ ID NO: 1) (UniProt P03355). To be noted: HEK293T; PAM TTTC; average ratio, EMX1 and VEGFA tested; RT editing ratio 1.436.
The target in series [10] is nuclease-RT fusion S136G S136G (numbering of SEQ ID NO: 1) (UniProt P03355). The conditions noted are these: HEK293T; PAM TTTC; average ratio, EMX1 and VEGFA tested; RT editing ratio 1.907.
Series [11] relates to nuclease-RT fusion R250G R250G (numbering of SEQ ID NO: 1). To be noted: HEK293T; PAM TTTC; loss of activity; average ratio, EMX1 and VEGFA tested; RT editing ratio 0.022.
In series [12] the target is nuclease-RT fusion D137G D137G (numbering of SEQ ID NO: 1) (UniProt P03355). The conditions noted are these: HEK293T; PAM TTTC; average ratio, EMX1 and VEGFA tested; RT editing ratio 1.665.

Consider “CACCGCCGUCAUCAACAUUGCCUUUCUGUUGCCCAGUAAACUUAUCAUACGGAGCCAGGCUAUAUAAUUAGCUACUUCUCGUGAGGUGCAGCCACGAGGUGCGAAAGUACGCCGCAAUGUGCGGAAUUCGCACGAAAGUUGGCGGAUUUCUUCGGAAAUCGAGCCAAUAACCAUCUCCAUAAAUAUGUGUGGUGAUGGACUGCAAGUGUUGCCCUCAUAACUUAUCUUUUUUGCG / TGTTGCCCTCATAACTTATC / GATAAGTTATGAGGGCAACA”, for which, in series [1] (PAM TTTC, precise editing 0.249%), the activity came to 14.6 % indel.
Take “GUGAGGUGCAGCCACGAGGUGCGAAUAGGAAGUACGCAGCAAUGUGCUGAAUCGUUCGCACGAAAAUUGGCAUUUUUGAAAACCAAAGCCAAUAAUCAUAUCCAUAAAUAUGUGUGGUUAUGAACUGCAAGUGUUGCCCUCAUAACUUAUC / TGTTGCCCTCATAACTTATC / GATAAGTTATGAGGGCAACA [parent sgRNA EMX1 ; EMX1 target]”: the activity (relative to parent) in [2] is 1.
In series [1] (PAM ATTC (inferred from RTT), precise editing 1.993%), “CACCGUGUCAGGCCUGCUAGUCAGCCACAGUUUGGGGAAAGCUGUGCAGCCUGUAACCCCCCCAGGAGAAGCUGGGAAAAAUGAGGAUGUAGUCACGGAUUCAUUAUCAGGUUCUGGCUGCAGGGUGCCUGAUCUGUGCCAGGGUUAAGCAUGCUGGUGAGGUGCAGCCACGAGGUGCGAAAGUACGCCGCAAUGUGCGGAAUUCGCACGAAAGUUGGCGGAUUUCUUCGGAAAUCGAGCCAAUAACCAUCUCCAUAAAUAUGUGUGGUGAUGGACUGCAAGAUUAUCAGCAAGUGGCUGCAUUUUUUGCG / ATTATCAGCAAGTGGCTGCA / TGCAGCCACTTGCTGATAAT” gave an activity of 7.64 % indel.
“UGUCAGGCCUGCUAGUCAGCCACAGUUUGGGGAAAGCUGUGCAGCCUGUAACCCCCCCAGGAGAAGCUGGGAAAAACCGUCAUCAACAUUGCCUUUCUGUUGCCCAGUAAACUUAUCAUACGGAGCCAGGCUAUAUAAUUAGCUACUUCUCCGUGAGGUGCAGCCACGAGGUGCGAAAGUACGCAGCAAUGUGCUGAAUUCGCACGAAAGUUGGCGGAUUUCUUCGGAAAUCGAGCCAAUAAUCAUAUCCAUAUUAUCUGCGGAUGGAUGUGAACUGCAAGUGUUGCCCUCAUAACUUAUC / TGTTGCCCTCATAACTTATC / GATAAGTTATGAGGGCAACA [Table 7 editing template RNA 1 (EMX1) ; EMX1 target]”: the indel ratio to WT (indel ratio to WT) in series [3] came to 2.13; in series [4], 2.7; in series [5] it was 2.77; in [6], 0.0299; in [7], 2.53; in series [8], 0.00343. Besides, the indel ratio to WT (indel ratio to WT) in [9] worked out at 2.83; in series [10] it was 3.18; in series [11], 0.00013; in series [12], 2.8.
Sequence “CACCGUGUCAGGCCUGCUAGUCAGCCACAGUUUGGGGAAAGCUGUGCAGCCUGUAACCCCCCCAGGAGAAGCUGGGAAAAACCGUCAUCAACAUUGCCUUUCUGUUGCCCAGUAAACUUAUCAUACGGAGCCAGGCUAUAUAAUUAGCUACUUCUCCGUGAGGUGCAGCCACGAGGUGCGAAAGUACGCCGCAAUGUGCGGAAUUCGCACGAAAGUUGGCGGAUUUCUUCGGAAAUCGAGCCAAUAAGCAUAUCCAUAUUAUCUGCGGAUGGAUGUGCACUGCAAGUGUUGCCCUCAUAACUUAUCUUUUUUGCG / TGTTGCCCTCATAACTTATC / GATAAGTTATGAGGGCAACA [sgRNA_C16_xrRNA_EMX1_TTTC editing template RNA ; EMX1 target]” returned an activity in [1] (PAM TTTC, precise editing 1.678%) of 10.7 % indel.
